Measured values: article PMC4083873, “Expression and characterization of a β-fructofuranosidase from the parasitic protist Trichomonas vaginalis” (BMC Biochemistry, 2014)

Assays:
[1] = substrate: OC[C@H]1O[C@H](OC[C@H]2O[C@H](O[C@]3(CO)O[C@H](CO)[C@@H](O)[C@@H]3O)[C@H](O)[C@@H](O)[C@@H]2O)[C@H](O)[C@@H](O)[C@H]1O; assay: coupled hexokinase / glucose-6-phosphate dehydrogenase / phosphoglucose isomerase assay of released fructose; Michaelis-Menten fit; type: biochemical, Trichomonas vaginalis; conditions: 20 mM sodium acetate, pH 5.0, 30 °C, ~27 nM enzyme
From the text: coupled hexokinase / glucose-6-phosphate dehydrogenase / phosphoglucose isomerase assay of released fructose; Michaelis-Menten fit on T. vaginalis β-fructofuranosidase

[2] = substrate: OC[C@H]1O[C@@](CO)(O[C@H]2O[C@H](CO)[C@@H](O)[C@H](O)[C@H]2O)[C@@H](O)[C@@H]1O; assay: coupled hexokinase / glucose-6-phosphate dehydrogenase assay of released glucose; Michaelis-Menten fit; type: biochemical, Trichomonas vaginalis; conditions: 20 mM sodium acetate, pH 5.0, 30 °C, ~27 nM enzyme
From the text: coupled hexokinase / glucose-6-phosphate dehydrogenase assay of released glucose; Michaelis-Menten fit on T. vaginalis β-fructofuranosidase

B1: T. vaginalis β-fructofuranosidase (Trichomonas vaginalis G3) (protein)
chain: MNFSSRLKFHFEPLKGWMNDPNGLIQFKGEYHAFFQHYPFDTKWGPMHWGHATSKDLIHWEHKPIALYPDQEYENNGGCFSGSAIEFNDKLHIFYTGVGKSNGQSQCHAVMQDENRFIKDPKNPIIKSPPIEYGINDFRDPKVVKIENTFYMVVGTGKDGIGRVLLYKSSNLENWTFLNLLVEGKEYGQCCECPDLIQIDNQFFLMFSQMTGQGIGTLFFHLKYENGTFTVDKKLNQPIIGPDFYAPQTFHDDKGRRIIIGWLYNWKRVPPKEVDYAGAFTIPCELKYKEGKIVVNPIDEISHELKSESKFVEIQENKLIINGKPSVIHEGKIENIKILEDVKTIEVWINNGEFYYSTWLF
notes: E. coli BL21(DE3); IMAC; calculated 44 kDa
For B1, the Km [1] was 5.5 ± 0.9 mM, the Vmax [1] was 368 µmol/min/mg and the kcat [1] was 270 ± 12 s⁻¹. It also gave a Km [2] of 20.6 ± 2.2 mM, a Vmax [2] of 1580 µmol/min/mg and a kcat [2] of 1160 ± 36 s⁻¹.
